Usually Kd stands for the concentration at which binding is half-saturated.

Data set [1] concerns the target T1, AtARF1-DBD (Arabidopsis thaliana, UniProt Q8L7G0 1-355).
T1 sequence: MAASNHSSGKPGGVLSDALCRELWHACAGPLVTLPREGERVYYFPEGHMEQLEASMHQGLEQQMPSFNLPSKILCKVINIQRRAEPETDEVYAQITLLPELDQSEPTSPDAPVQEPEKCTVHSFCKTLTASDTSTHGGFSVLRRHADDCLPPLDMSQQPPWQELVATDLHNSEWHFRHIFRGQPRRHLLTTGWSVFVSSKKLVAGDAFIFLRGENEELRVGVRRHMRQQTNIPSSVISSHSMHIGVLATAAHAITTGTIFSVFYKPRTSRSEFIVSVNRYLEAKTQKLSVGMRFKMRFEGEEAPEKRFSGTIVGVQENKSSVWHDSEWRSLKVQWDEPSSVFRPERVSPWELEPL
As to the kind of experiment: smFRET titration.

The target in data set [2] is T2, AtARF5-DBD (Arabidopsis thaliana, UniProt P93024 1-390).
T2 sequence: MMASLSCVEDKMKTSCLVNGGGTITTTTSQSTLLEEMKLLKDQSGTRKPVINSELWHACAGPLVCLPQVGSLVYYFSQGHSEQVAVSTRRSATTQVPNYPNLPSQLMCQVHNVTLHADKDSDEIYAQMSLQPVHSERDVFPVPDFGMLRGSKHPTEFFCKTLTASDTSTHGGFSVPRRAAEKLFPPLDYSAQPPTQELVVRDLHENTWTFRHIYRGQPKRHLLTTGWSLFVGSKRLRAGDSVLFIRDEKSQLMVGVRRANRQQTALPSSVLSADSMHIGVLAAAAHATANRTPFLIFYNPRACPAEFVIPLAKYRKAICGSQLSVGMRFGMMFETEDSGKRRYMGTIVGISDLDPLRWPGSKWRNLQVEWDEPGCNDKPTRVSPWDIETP
As to the kind of experiment: smFRET titration.

Data set [3] addresses T2, AtARF5-DBD. As to the kind of experiment: size-exclusion chromatography. (In gel filtration, larger molecules generally elute earlier.)

B1: DR5 (dsDNA)
DNA 1: ACTGCCTTTTGTCGGCCTTTTGTCGGATCCGTGTG
DNA 2: CACACGGATCCGACAAAAGGCCGACAAAAGGCAGT
Take B1: the Kd was determined as 570 nM in data set [1] and 60 nM in data set [2].

B2: pTMO5Δ1-IR7 (dsDNA)
DNA 1: TGGTCTCTGGTCGGTTTTTTA
DNA 2: TAAAAAACCGACCAGAGACCA
For the molecule B2, the binding result in data set [3] is recorded as “no binding”.

B3: pTMO5Δ2-IR7 (dsDNA)
DNA 1: TTTTTTTTGGTCGGTTTTTTA
DNA 2: TAAAAAACCGACCAAAAAAAA
As to B3, in data set [3], the binding result was “no binding”.

B4: IR8 (dsDNA)
DNA 1: ACTCTTTTTTGTCGGGGAAAAGGCCGACAATCCGTGTG
DNA 2: CACACGGATTGTCGGCCTTTTCCCCGACAAAAAAGAGT
For the molecule B4, the dissociation constant (Kd) amounted to 140 nM in data set [1] and 9 nM in data set [2].

Source of the values: paper PMC7533888.
